In publication PMC3429349 (Science (New York, N.Y.), 2009):

Biological target: the molecule itself

B1: HSF1 K80Q (natural protein, human, UniProt Q00613 1-529, looked up)
chain: MDLPVGPGAAGPSNVPAFLTKLWTLVSDPDTDALICWSPSGNSFHVFDQGQFAKEVLPKYFKHNNMASFVRQLNMYGFRQVVHIEQGGLVKPERDDTEFQHPCFLRGQEQLLENIKRKVTSVSTLKSEDIKIRQDSVTKLLTDVQLMKGKQECMDSKLLAMKHENEALWREVASLRQKHAQQQKVVNKLIQFLISLVQSNRILGVKRKIPLMLNDSGSAHSMPKYSRQFSLEHVHGSGPYSAPSPAYSSSSLYAPDAVASSGPIISDITELAPASPMASPGGSIDERPLSSSPLVRVKEEPPSPPQSPRVEEASPGRPSSVDTLLSPTALIDSILRESEPAPASVTALTDARGHTDTEGRPPSPPPTSTPEKCLSVACLDKNELSDHLDAMDSNLDNLQTMLSSHGFSVDTSALLDLFSPSVTVPDMSLPDLDSSLASIQELLSPQEPPRPPEAENSSPDSGKQLVHYTAQPLFLLDPGSVDTGSNDLPVLFELGEGSYFSEGDGFAEDPTISLLTGSEPPKAKDPTVS
Question: B1 was tested. Which “stoichiometry N” value did it give?
Answer: Its value is 3.
